Measurements published in patent US20140286960A1 (CANGENE, published 2014).

Biological target: Staphylococcus aureus alpha-hemolysin (Staphylococcus aureus, UniProt P09616)
Sequence (P09616 27-319 limits assumed): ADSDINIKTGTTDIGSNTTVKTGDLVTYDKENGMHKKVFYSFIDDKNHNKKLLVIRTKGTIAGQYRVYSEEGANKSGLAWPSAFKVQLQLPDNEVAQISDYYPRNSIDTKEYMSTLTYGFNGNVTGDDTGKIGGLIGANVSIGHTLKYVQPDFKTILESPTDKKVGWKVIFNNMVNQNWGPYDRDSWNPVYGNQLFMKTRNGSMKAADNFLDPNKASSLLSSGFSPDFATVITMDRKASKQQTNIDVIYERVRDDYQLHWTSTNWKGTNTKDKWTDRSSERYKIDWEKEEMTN

B1: CAN24G4 monoclonal antibody (antibody, V domains shown)
VH: EVHLQQSGAELVKPGASVRLSCTGSGLDIKDTYIHWVKKRPEQGLEWIGRIDPANGITKYDPKFQGKATVTADTSSNTAYLQFSSLTSEDSAVYYCSSEYYPYPMDYWGQGTSVTVSS
VL: DIKMTQPPSSMYASLGERVTVTCKASQDISSFLTWFQQKPGKSPKILIYRANRVVDGVPSRFSGSGSGHDYSLTISSLESEDMGIYYCLQYDEFPWTFGGGTKLEIK
Question: With B1 as the binder, how does the Kd read?
Answer: Its Kd is 9.4 nM.

Question: What about the koff of the same binder?
Answer: Its koff is 0.004 s⁻¹.

Question: What about the kon of the same binder?
Answer: Its kon is 430000 M⁻¹ s⁻¹.
